“And” between values parts separate entries of the source, which are not always exact repeats. Identical values can stand only once. Blank lines part the entries; values can stand above or below the molecule they belong to.
Legend:
[1] = biological target: FLAG-tagged recombinant human IgM-Fc (human); test: negative-stain EM; purified IgM-Fc or IgM made with the J chain, about 15 μg/ml, 1% uranyl acetate; reference-free 2D class averages (RELION)
[2] = biological target: FLAG-tagged mouse IgM-Fc Cys414Ser variant (mouse); test: as above
[3] = biological target: FLAG-tagged mouse IgM-Fc Cys414Ser variant (mouse); test: Western blotting after non-reducing SDS-PAGE; supernatant of HEK293T cells co-expressing FLAG-IgM-Fc and HA-J chain; anti-FLAG and anti-HA blots, reducing and nonreducing conditions
[4] = biological target: the molecule itself; test: negative-stain EM; purified IgM-Fc or IgM made with the J chain, about 15 μg/ml, 1% uranyl acetate; reference-free 2D class averages (RELION)
[5] = biological target: the molecule itself; test: negative-stain EM; purified FLAG-tagged mouse IgM-Fc oligomers made in the absence of the J chain; reference-free 2D class averages
[6] = biological target: T1, Mouse IgM-Fc pentamer with HA-tagged J chain (mouse, UniProt P01872 1-454; P01592 22-159); test: co-IP; complex from co-culture supernatant purified on ANTI-FLAG M2 Affinity Gel, then on an anti-AIM antibody column; eluate blotted with anti-HA in a reducing condition, bands quantified with ImageJ; five experiments; details: partners not purified
T1 construct: Mouse immunoglobulin M heavy chain, Fc region: Cμ2-Cμ3-Cμ4 and the short tail; Mouse immunoglobulin J (joining) chain; as m2; also called Fc-pentamer/J-HA; IgM-Fc/J-HA; source: HEK293T transfected with pCAGGS-FLAG-mouse Fc and pCAGGS-mouse J chain-HA, co-cultured with cells expressing AIM-HA; not shown: FLAG, N-terminal, kept; copies: 10 + 1
T1 sequence (looked up) 1: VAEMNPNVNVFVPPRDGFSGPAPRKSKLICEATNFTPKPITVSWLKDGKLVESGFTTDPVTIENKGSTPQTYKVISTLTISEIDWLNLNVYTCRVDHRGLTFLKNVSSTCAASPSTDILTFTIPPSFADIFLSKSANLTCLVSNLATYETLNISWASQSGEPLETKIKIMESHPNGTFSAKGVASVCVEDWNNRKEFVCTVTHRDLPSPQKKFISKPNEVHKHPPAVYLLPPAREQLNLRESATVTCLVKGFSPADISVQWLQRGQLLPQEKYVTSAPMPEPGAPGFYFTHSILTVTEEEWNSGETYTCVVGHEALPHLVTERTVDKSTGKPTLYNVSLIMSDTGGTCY
T1 sequence (looked up) 2: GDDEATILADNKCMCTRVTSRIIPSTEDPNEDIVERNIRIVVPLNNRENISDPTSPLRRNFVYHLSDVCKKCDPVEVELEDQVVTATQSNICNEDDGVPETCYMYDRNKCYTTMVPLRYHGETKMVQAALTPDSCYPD

Molecule: FLAG-tagged mouse IgM-Fc Cys414Ser variant (domain or fragment)
- stoichiometry N [2]: 4 and 5
- stoichiometry N [3]: 4 and 5

B1: FLAG-tagged recombinant mouse IgM-Fc (Cμ2 to tail) (domain or fragment, UniProt P01872 1-454, looked up)
chain: VAEMNPNVNVFVPPRDGFSGPAPRKSKLICEATNFTPKPITVSWLKDGKLVESGFTTDPVTIENKGSTPQTYKVISTLTISEIDWLNLNVYTCRVDHRGLTFLKNVSSTCAASPSTDILTFTIPPSFADIFLSKSANLTCLVSNLATYETLNISWASQSGEPLETKIKIMESHPNGTFSAKGVASVCVEDWNNRKEFVCTVTHRDLPSPQKKFISKPNEVHKHPPAVYLLPPAREQLNLRESATVTCLVKGFSPADISVQWLQRGQLLPQEKYVTSAPMPEPGAPGFYFTHSILTVTEEEWNSGETYTCVVGHEALPHLVTERTVDKSTGKPTLYNVSLIMSDTGGTCY
notes: Mouse immunoglobulin M heavy chain, Fc region: Cμ2-Cμ3-Cμ4 and the short tail (19 amino acids); also called mouse Fc; Fc monomer; source: HEK293T, transfected (pCAGGS-FLAG-IgM-Fc, with or without the J chain plasmid), in culture supernatant; not shown: FLAG, N-terminal, kept
- stoichiometry N [4]: 5
- stoichiometry N [5]: 6

More lines, now with the values ahead:

- stoichiometry N [1]: 5
Molecule: FLAG-tagged recombinant human IgM-Fc (domain or fragment)

- ratio of HA signal, AIM-HA versus J-HA [6]: 1.3 ± 0.12 J-HA signal per AIM-HA signal
- stoichiometry N [6]: 1 AIM per pentamer
B2: HA-tagged mouse AIM (natural protein, UniProt Q9QWK4 22-352, looked up)
chain: ESPTKVQLVGGAHRCEGRVEVEHNGQWGTVCDDGWDRRDVAVVCRELNCGAVIQTPRGASYQPPASEQRVLIQGVDCNGTEDTLAQCELNYDVFDCSHEEDAGAQCENPDSDLLFIPEDVRLVDGPGHCQGRVEVLHQSQWSTVCKAGWNLQVSKVVCRQLGCGRALLTYGSCNKNTQGKGPIWMGKMSCSGQEANLRSCLLSRLENNCTHGEDTWMECEDPFELKLVGGDTPCSGRLEVLHKGSWGSVCDDNWGEKEDQVVCKQLGCGKSLHPSPKTRKIYGPGAGRIWLDDVNCSGKEQSLEFCRHRLWGYHDCTHKEDVEVICTDFDV
notes: Mouse AIM (CD5L), secreted; also called AIM-HA; source: HEK293T, transfected (pCAGGS-AIM-HA), co-cultured with cells expressing FLAG-mouse Fc and J chain-HA; culture supernatant, co-purified with the Fc pentamer

From paper PMC6179379, “The IgM pentamer is an asymmetric pentagon with an open groove that binds the AIM protein” (Science Advances, 2018)
